Test results from IntAct's records for PubMed 18046461.

B1: Mitogen-activated protein kinase 8 (Rattus norvegicus (Rat)), P49185 (parent)
chain: MSRSKRDNNFYSVEIADSTFTVLKRYQNLKPIGSGAQGIVCAAYDAILERNVAIKKLSRPFQNQTHAKRAYRELVLMKCVNHKNIIGLLNVFTPQKSLEEFQDVYIVMELMDANLCQVIQMELDHERMSYLLYQMLCGIKHLHSAGIIHRDLKPSNIVVKSDCTLKILDFGLARTAGTSFMMTPYVVTRYYRAPEVILGMGYKENVDLWSVGCIMGEMVCLKILFPGRDYIDQWNKVIEQLGTPCPEFMKKLQPTVRTYVENRPKYAGYSFEKLFPDVLFPADSEHNKLKASQARDLLSKMLVIDASKRISVDEALQHPYINVWYDPSEAEAPPPKIPDKQLDEREHTIEEWKELIYKEVMDLEERTKNGVIRGQPSPLGAAVINGSQHPVSSPSVNDMSSMSTDPTLASD
partner: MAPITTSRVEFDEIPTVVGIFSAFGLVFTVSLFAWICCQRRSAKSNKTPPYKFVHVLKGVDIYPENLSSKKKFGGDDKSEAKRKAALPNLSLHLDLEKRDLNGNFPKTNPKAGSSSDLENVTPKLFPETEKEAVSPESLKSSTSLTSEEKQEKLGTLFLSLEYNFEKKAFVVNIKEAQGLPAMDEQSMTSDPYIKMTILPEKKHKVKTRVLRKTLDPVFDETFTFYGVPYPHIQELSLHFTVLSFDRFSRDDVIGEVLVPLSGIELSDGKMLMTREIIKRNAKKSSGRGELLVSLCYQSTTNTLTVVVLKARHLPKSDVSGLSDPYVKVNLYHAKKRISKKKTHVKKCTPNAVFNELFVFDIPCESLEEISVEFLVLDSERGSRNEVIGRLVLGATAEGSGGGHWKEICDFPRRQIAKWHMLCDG
B2: Mitogen-activated protein kinase 8 (Rattus norvegicus (Rat)), P49185 (parent)
chain: B1 chain

Key:
syt4_rat Syt4, P50232 [1] = variants of: B1; conditions: with syt4_rat Syt4, P50232
syt4_rat Syt4, P50232 [2] = variants of: B1; conditions: with syt4_rat Syt4, P50232; remark: listed apart in the source
syt4_rat Syt4, P50232 [3] = variants of: B1; conditions: with syt4_rat Syt4, P50232; remark: listed apart in the source
jun_rat Jun, P17325 [4] = variants of: B2; conditions: with jun_rat Jun
jun_rat Jun, P17325 [5] = variants of: B2; conditions: with jun_rat Jun; remark: listed apart in the source

Row | Variant | effect of a mutation on the interaction (syt4_rat Syt4, P50232 [1]) | effect of a mutation on the interaction (syt4_rat Syt4, P50232 [2]) | effect of a mutation on the interaction (syt4_rat Syt4, P50232 [3]) | effect of a mutation on the interaction (jun_rat Jun, P17325 [4]) | effect of a mutation on the interaction (jun_rat Jun, P17325 [5])
1 | D162T | decreasing interaction | disrupting interaction |  |  | 
2 | D326N |  | disrupting interaction | decreasing interaction |  | 
3 | E329N |  | disrupting interaction | decreasing interaction |  | 
4 | E331N |  | disrupting interaction | decreasing interaction |  | 
5 | E331N |  |  |  | disrupting interaction | decreasing interaction
6 | D326N |  |  |  | disrupting interaction | decreasing interaction
7 | E329N |  |  |  | disrupting interaction | decreasing interaction
8 | D162T |  |  |  | disrupting interaction | 
